Reference: article PMC8920335

Legend:
[1] = immunoblot of lysates and conditioned medium; settings: glycan lost; control: WT CGA
[2] = immunoblot after BMA or MG132 treatment; settings: glycan lost; control: WT CGA

Sequence | expression_or_secretion [1] | degradation_or_half_life [2]
CGA (glycoprotein hormone α polypeptide): N52Q/N78Q double mutant (DM) | decreases | 
CGA (glycoprotein hormone α polypeptide): N78Q | decreases | changes
CGA (glycoprotein hormone α polypeptide): N52Q | decreases | changes
